The results in this text go back to paper PMC8099640, “Collagen IV^α345 dysfunction in glomerular basement membrane diseases. III. A functional framework for α345 hexamer assembly” (The Journal of Biological Chemistry, 2021).

Broadly, the stoichiometry N is the number of molecules, sites or subunits per partner or assembly.

Data set [1] addresses recombinant α345 miniprotomer (human) (UniProt Q01955). The data set is described as follows: atomic force microscopy; miniprotomer 1 to 2 μg/ml deposited on mica from buffer with chloride, imaged dry, AC tapping mode in air.
Data set [2] concerns the molecule itself. Nature of the data set: SEC; NC1 monomers alone or in equimolar mixture, 2 mg/ml in 25-mM Tris acetic acid buffer pH 7.5, NaCl added (150 mM), 24 h at 37 °C; Superdex 200 Increase 10/300GL in TBS; hexamer peak blotted with α3, α4 and α5 NC1-specific mAbs. In general terms: In gel filtration, larger molecules generally elute earlier.

In the case of “recombinant α345 miniprotomer (from UniProt Q01955 29-1670; P53420 39-1690; P29400 27-1685) (complex)”, the stoichiometry N in data set [1] worked out at 2.

B1: recombinant human collagen IV α5 NC1 monomer (domain or fragment, UniProt P29400 1461-1685, looked up)
chain: GFLITRHSQTTDAPQCPQGTLQVYEGFSLLYVQGNKRAHGQDLGTAGSCLRRFSTMPFMFCNINNVCNFASRNDYSYWLSTPEPMPMSMQPLKGQSIQPFISRCAVCEAPAVVIAVHSQTIQIPHCPQGWDSLWIGYSFMMHTSAGAEGSGQALASPGSCLEEFRSAPFIECHGRGTCNYYANSYSFWLATVDVSDMFSKPQSETLKAGDLRTRISRCQVCMKRT
notes: collagen IV α5 chain, NC1 domain, human; amplified by PCR from a human kidney cDNA library; Secreted by means of the BM-40 signal peptide of the vector (derivative of pRc-CMV)
B1: the “stoichiometry N” value in data set [2] worked out at 6.
